In patent publication US20230226096A1 (Orna Therapeutics, Inc., priority 2020, published 2023):

system: HEK293 cells; format: cell-based, human; details: luminescence from secreted Gluc in supernatant 24 hours after transfection of HEK293 cells; circular RNA encoding Gluc with the named IRES (UTR truncated to 675 nt)

Molecule	Expression
Ball python nidovirus (nucleic acid, Ball python nidovirus) DNA: CCCCTTCACCCATAGGCACTAGGAGAACAGGATAACCCCTAACGGGGCATCCTGCCTGTGACCTTTCAGATTCGCTAGTTAGATATCTTCACAGACTCTGCTAGGCTTCTGACCCAGTCCGTTCCCAAAGTCCGTTACCGCCCGAGTAGCGCTTAGGCGCGAAAGGGACGGAAGTACCTCCAGTAAGCGAAAGCTGAAGTAAGGGAAATACGGCAAGACTAACTTGTTAGTCTTACAGTGTGGATAACCTGGTAGTTATCCCCGACAAGAGACCTGACTCGATGTGAAAACATCCAACTAGGTTGGCTTCAAACTAGCTACAGGCAGGATATCCCCCAACGGGGCCTCCAAGGAATCGAGAACCAACCCTCATTCCACGTCTGTAGTAAGCAAAAACAGGGGCGATCTTCACCGACACCTCTCACCACAGAGCACACCAACCTCTGTGAAGCCAATTTCCTCGTCCAAGGACAGGTTATTGAGGGTCAACTTTCTTCCGACCAGAAGAAGGGATTTCCTACCAAAAGAAAAACCAAATCCACCAACACCACAAGGTAAAACAACAACTTGTGAAGCCAATACTTAGTCAAAGACTAACTATTGAGGGTCAACTTTCTCTTCAATAGAGAAGGGATTTCCTGGTAAAACAAATAACAACAACTAACATCAGCAACT	8.25E+04
Avisivirus Pf-CHK1 (nucleic acid, listed as Avisivirus sp.) DNA: CATTCCCCTTTCCCCAGCCATGGGTTAAATGGCCCCTCACCAGGTTCGGTGCTGTCTAGGCTTCCAGTAAAGAAGTCAACCGAGCATTGAACAAAACCTCAGTGGGTATGGTAGTTAACCCCGTCCACTGGACAACTTTGTCCTCTTAAAAGTGGATCAATCCACCCCAACTCCCCCCCTAGCCACCTGAGCCATGGTGGATAGCAGTGACGAAACTAGGGACCCCAATACCTCTAGTGCCAAGAGAATTCCCCCCTCGCGAGAGGTGCTCTTGGGCCCGAAAGGCTAGTTGGCAGGGTGAAGTGAAGGAAGCTGCTAGCGTGGCAACCTTAAGCGTAGCCCGAAGCTGACCTTAGAGGTTAACCCTAGTGGACCACTGGATGAAGCTGTGGAGGTGGTGGATAGGAAAGTTGGCCACTTGTGAGTAGATGCCCAGAAGGCATAAGGCTGATCTGGGGCCAGTGACTATACCGTTCCGGTAAACCTGGTATAAAAACCATGAAAGCAAGTGGGTTTAAAATTTCTTCTAATTCCTTCATTTCAGTAGTGATAACTGGCAGA	1.19E+05
Bat Picornavirus 1 (nucleic acid) DNA: GAAACCCGTATACACCGGACCTTTTCTCCCCTCCCTCTCCACTTACCTTTTTCCCCTCTTCGGCATGAAACAAGGATTATTCAAGTGGAAACGCGATTTAATATGCGGCTGGCCACCGCGGAATAACGGCAATTGTGTATCTGCTGGAAGCCAAGCCTGCCTAGCCGATAGCCCTTGACCGGGTGTGTAGGATAGCCCAGGAACCAGCAATACGCGACAGGTTATGGTAGAGTAGATACCTAGCCAGGGGCAATGGGACTGCATTGCATATCCCTAATGAACCATTGAGATTTCTCTGGTCATTACCCGGTGATGGTTACTAGAGGGGGGCCTCTAGTACTAGATCTATACTGCCTGATAGGGTCGCGGCTGGCCGACCATGACCTGTATAGTCAGTTGATTTGAGCAAT	1.85E+07
Antarctic penguin virus A (nucleic acid, chemistry not fully specified; the letters are possibly those of the target site) DNA: CTAGGAGACTACGCAGTGGGATAAGATGACTATGATGTCGTACGGGCAGAAGCCAGTACAGTCGAAGTCGAGACCGACGTCGAGGATTTGACTCTGCCTGACCTAGTGCCATC	8.42E+04
Rhimavirus A (nucleic acid) DNA: CGAATTCCGGACATCTCCTTTCGGGGGCGAGCGTCACCGTGCCCCTCATGGAGGCAACTGTGCCTCTAATCGGTGACCCACTGAGAAAATTTTCTTTCTACGTGGCTAAACAATGCAACTTTATAATAACACAAATTTAATGCTTAATCTTAACACCAAAGATTTGAACATATGTTTGGAAAGTGGCACACTTCAAACATTGCATAGTTGCTAGGGGTGAAGTCCCTTTAAGGGGTTGCAGAGGATCTTTCCTCTTTATGAGCGGCTAGGAGTATCTTCTTGATATTATGTGGTCGTGCAACTCACTTCCCAGATGTATGACGGTGTACTAAGCGATTGGAACTAGTCATAACCTCTTTGAATTTTGGTATTGCGAGTCTAGCAGGGGGATATTTACCGCTAAAGGGTGACACACTCGTGAGGGTGGCCTTTGGTGTGTGTATATTTATTCCGCCCATCTTGCATGGGGTGCTAAAATTCTAATGCTGTGAAATAACCATTTTCTGAATACATTCTCTACATTTGGAGTCAAATATGAGGAATGCCACTCAGGTACCCTTGACATGATCTTGGATCTGAGAGTGGGCTAATTATCTAATTATTTGGCGACTTTCTAAAATCTTCTGTTTTTAGTGGTGACAATTTATGGTTATAAA	8.42E+05
Bat sapelovirus (nucleic acid, listed as Sapelovirus sp.) DNA: GACAGGTGTTTTGGAGGGCGGATGACGATATCTGGCTGGCCACCAGGGAATAACGGCAAATGTCTGATCATACGGTTCACAAGTCTACCGGCGATAGTGGTTCAACACCATGTGTAGCAGGGATTCTTGCGTATGTGAAGGCGACAGTGC	8.05E+04
Basella alba endornavirus (nucleic acid) DNA: GGAATATGGCTAATCGGCTTATTCTAATCAAACGCAAAAGACTTATGACACAGACCGGACCTGAACGAGGTGATAAAACACCTCGTTCAGGTTCAAAACGTAGAAGATTCATTCCTCCGATTAGAAATACAACTACGTCTAAGCACGATAGAGATGGTATCAAGATCGGTTTTAGACCACGAGAAAATCGGCAAATGAAAGTACAAGTTGGGTGGTTTAAATTACCAAGAACAGTAACATTCAAGAACAACGGCAACCCGTTTGTTACCTCATTTCGTAAATTGTTTAGAAGTAACAAAGATAAATTATTTAATGGTGGGAAGAACCTAAGTACAGTACCAGCCAGAAGTAGTGAAATGACAGAAATGTTTATGTTCATGTCCACGCTAGAGGGCCAATTGTCAATCCAAGATCGAGATCCAAAAATAATCAATAAGTCTATATACATGATAGAGGTA	7.65E+04
Bat Hp-betacoronavirus (nucleic acid, Bat Hp-betacoronavirus) DNA: TTAAGCTTCGGCTTGTTGCATAGGACCGGAAAGGTACTATCTACCCTAACTCTTGTAGTTAGACTCTCTAAACGAACTTTAAAACTGGTTGTGTCCTTCAGTAGTCTGTATGGCCATTGGAGGCACACCGGTAATTATCAAATACTAAGAAGATTCATAGTACATCCTTGTCTAGCTTTTGGTTGGCAGTGAGCCTACGGTTTCGTCCGTGTCGCTCACAATTATCCACACAGTAGGTTTCGTCCGCTGTGGTTGAGTTGCTAGTCCGTTGCTGTTTCGTCAGCCATCTACAACTCGACACC	8.47E+04
Bat Picornavirus 2 (nucleic acid) DNA: GGGTTTTACGAAACCCGTATACACCAGACCTTTTCTCCCCTCCCCCTCCACCTACCTTTTCCCCCTCTTTGGACCGAAACAAGGACACGTAAGTGGAAACGCGATTTTATATGTGGTTGGCCACCACGGAATAACGGCAATTGTCTACATGTGGGAAGTGCAACCTCCCTAGCCGATAACCCCTGACCGGGTGTGTAGGATAGGAAAGGTGCCCACTGTGGGCGACAGGTTATGGTAGAGTGGATACCTAGCCAGGGGCAATGGGACTGCTTTGCATATCCCTAATGAAGTATTGAGATTTCTCTGCTCATTACCCGGTGATGGTTGTGTGGGGGGGGCCCCATACACTAGATCCATACTGCCTGATAGGGTCGCGGCTGGCCGACCATAACCTGTATAGTCAGTTGAATTCAGCCAAG	7.99E+07
